The record followed here is the DeepSol protein solubility set.

The nature of the data set: soluble on expression in E. coli; label from the status in PepcDB or PDB records.
As to “MLYEKFEYNINNLIGNFGLSKIAIAVSGGSDSISLLYLANIWARKNNIELFVISVDHNLRPQSKQENYYIHTISSNLNRKYYNLSFDHQNNFSNLQERAREGRYDLMTNLCLELDVLVLLTAHHEDDYVENFCLRLERNSGIFGLSSSNIHWYNNIQIIRPLYNIPKSELVEYLVNHKIKWFEDESNLSDKYRRNIIRQKLFKEENYIKAEISLQQLKTNKLIEDELKPALISAIAEAVKIFEYGFTFLDLVKFDKFLNEVKAQIINFLLIMISGQSRSARFYSIAHILKLISQDINFKNTVHGCVIKRIQNELLIYREFGKKLPKSKILLDKSVIWDNRFCITKNQKTPDCVITYLSLADYKAIKKQLDLKHLKNLSCKNHNAILFTLPIIKILEKVIAIPHISYYDNDVWNFEVSFAPNFVSRFTHFC”, the “soluble on expression in E. coli” value is reported as “not soluble”.
“MLYLHDVWVNWFEGEENGYNVCHFYEWRKDDTIELLDQVPLLKVDATLYHYIENELLELPQKMLKTYIIRLIFVKIMNVCSKSIALLLQNGKGIIAIDTIGYNVPIRKSRLIPRQEQMVYEMVENVQAEKYEFQVEETEKEHHILSPSPFIMNGLTRKERQLKQLLFMALDQLHTTKNTAEIRYWFTEWDPSAYGMVQHMEFEDIWAKLYDEAKTGWSDKHEQLCERLVKGQPFFEKLWEMENEQKVN”: the “soluble on expression in E. coli” value is recorded as “not soluble”.
The same measure for “MLYVILRGRLGNNLFQIATAASLTQNFIFCTVNKDQERQVLLYKDSFFKNIKVMKGVPDGIPYYKEPFHEFSRIPYEEGKDLIIDGYFQSEKYFKRSVVLDLYRITDELRKKIWNICGNILEKGETVSIHVRRGDYLKLPHALPFCGKSYYKNAIQYIGEDKIFIICSDDIDWCKKNFIGKRYYFIENTTPLLDLYIQSLCTHNIISNSSFSWWGAWLNENSNKIVIAPQMWFGISVKLGVSDLLPVSWVRLPNNYTLGRYCFALYKVVEDYLLNILRLIWKRKKNMLEHHHHHH”: “not soluble”; for “MMCSTVISQLGFECHPIGKTLRIISPFTYCDDGEHVGAFIREVNGRYLVSDRCDALMNMEARGISLTKKRLDEIRQLLLKEGAELNARGEIIAWATEKDVGAITSNIIRAGILASTLSLDWYQPVQAEKFESMVIDYLYHTELRDALSLRENVYGLSGHQITVPVTIKTDIPKYVFTSSVKHGGSWNSAYSLLGKLIDLKASSEEYNNRFVVIDSEAIGDQMQQLSLLFHESSQVLPFSKRETWVKRLAA”: “not soluble”.
Under “MMEEQLIPIQWKDDALVLLDQTLLPNEIVYESFKTAESVWDAIQVMKVRGAPAIGVSAAYGVYLGIKEFAESTEEGFMDEVRKVCTYLATSRPTAVNLFWALERMESVATDNIHLSISQLKNRLLEEAKEIHREDEEINRQIGEHALTLFHDGMGVLTHCNAGALATTKYGTATAPMYLAKEKGWDLKIYSDETRPRLQGSTLTALELQRAGIDVTVITDNMAAMVMSQGKIDAVIVGCDRVAANGDVANKIGTLGVSILAKYYNIPFYVAAPTPTIDLKTSTGKEIPIEERDASEVINRFGKYSAPKESKVYNPAFDVTPHENVTAIITEKGIVKAPFTENLKKLFQ” stands “not soluble”; under “MMELHRRVLEGDEAALKTLVSAAPNIGEVARDVVEHLSPGSYREGGPCAVCGGRLESVIASAVEEGYRLLRAYDIERFVVGVRLERGVAMAEEEVKLAAGAGYGESIKAEIRREVGKLLVSRGGVTVDFDSPEATLMVEFPGGGVDIQVNSLLYKARYWKLARNISQAYWPTPEGPRYFSVEQALWPVLKLTGGERLVVHAAGREDVDARMLGSGRPMIVEVKSPRRRRIPLEELEAAANAGGKGLVRFRFETAAKRAEVALYKEETARVRKVYRALVAVEGGVSEVDVEGLRRALEGAVIMQRTPSRVLHRRPDILRRRRLYSLDCSPLEGAPLMECILEAEGGLYIKELVSGDGGRTRPSFAEVLGREAVCIELDVVWVEHEAPAAPGLEHHHHHH”, “soluble”; under “MMGLLKRLLRVVRAEAHSVVEKLEDPIKITEEGLRELRKQLKEAMEALAQVKASQIRFEREARNEKERAKALVKKAESLLLQAQEGKISPEEAEKLAAELIQKAELHEKNARRLEEEAKRQREMAVKLQAKIDELKVQIAKYEAELKTLKARLATARAVKKVNKQIAKVDPSDTIAMLERMKEKVEEEETLAQAYEELAKQEVALDVESEAEKKLKEVESKQKLEELKKRLGLSLEHHHHHH”, “not soluble”.
Under “MMIDDSKVSFVIPTINEEGTIGSVIDGIRSEFPNSEIIVVDTNSTDRTREIARSKGARVIEEPRRGYGRAYQTGIPAASGEIIVCMDGDGTYPTDVVKPLIELLIADRVDFISCDRITFRTSKNYTTLHYVGNMVLNLTIRILFKVRMVDSQSGMWVFRSEIYRKMKNLGNGMSFSQNIKIEAVRHGVFMEIPIRYGVRITKPKLKTWHDGFHNLFALFVKRVSELEHHHHHH” stands “soluble”; under “MMITRELVLKANREQPPYASILALAASGFSLEKSVQFSEKQQLALNLDGELLSNDVEIARIIAQSTDAADSLLGSSIIDFAVVDDLTNFIADAVTKNDYSLLLGKDFPTKILDNSLTVADFAIFSVAHNNPQLKAKFSGIIDKVLKEPTLAAAHNFVGLYKSAAAPTATASTGKEKKKDEGKFVELPGAEKGKVVVRFPPEASGYLHIGHAKAALLNQYYQQAFEGQLIMRFDDTNPAKENAHFEHVIKEDLSMLNIVPDRWTHSSDHFEMLLTMCEKLLKEGKAFVDDTDTETMRNEREQRQDSRNRSNTPEKNLQLWEEMKKGSPKGLTCCVRMKIDMKSNNGAMRDPTIYRCKPEEHVRTGLKYKVYPTYDFTCPIVDSVEGVTHALRTTEYHDRDDQYYFICDALGLRRPHIWEYARLNMTNTVMSKRKLTWFVDEGHVEGWDDPRLPTVRGVMRRGLTVEGLKQFIVAQGGSRSVVMMEWDKIWAFNKKVIDPVAPRYTALDSTSPLVSIELTDSISDDTSNVSLHPKNAEIGSKDVHKGKKLLLEQVDAAALKEGEIVTFVNWGNIKIGKIEKKGAVITKISATLQLDNTDYKKTTKVTWLGDVKAEAGKTIPVVTADYDHIISKAIIGKDEDWKQFINFDSVHYTKMVGEPAIKNVKKGDIIQIQRKGFYIVDQPYNPKSELSGVETPLLLIAIPDGHTGKEAEKPPKGAPVSAAASSGGSDALQLYNSIEQQGGIVRDLKTKDAKSQATKDAIAKLLDLKKKYKELTGSDHKPGAPPSAPAPTTPSSSESNSALNIYNLIEAQGLLVRELKGKDAKSQATKDAIAKLLELKKQYKEVSGSDHKPGVPPAASVASAPAPAPAAGSTNALDIYHQIESQGALVRELKGKDAKSQATKDAIAKLLALKKQYKEVTGSDHKPGVVPVSAPAPTPLAGGADIAGQIEAQGVLVRDLKNKDSKSQETKDAIAKLLELKKNYKEVTGSDYKPGPAPAAAPAKVTVPAPSVSGGDTLSKQIDDQALLVRELKMKDAKSQETKDAIAKLLQLKKQYKDATGSDYKPAPAQLAASAAAAPAPAPAFDEAALLKEIEEQGAVVRDAKSKDPKSQDSADAINKLLALKANFKKATGKDFPAPSNAQSKKGKKK”, “not soluble”.
Turning to “MMKEFNPREIEKKWQKRWEEAGVFKAQEGKPNKFYVLEMFPYPSGRIHMGHVRNYTIGDAIARYLKMRGKNILHPMGWDAFGLPAENAAIKHGIHPAKWTYENIDYMKKQLKILGFSYDWDREIATCDPEYYKWNQWIFLKMLERGIAYRKTAKVNWCPHDQTVLANEQVIEGKCWRCGTPIVQKEVPSWFLRITAYADRLLEDLKKLEGKWPERVIAQQRNWIGRSEGALIRFYVEIEEPEKFLNCVPEELKETLLKEKRIYIDVFTTRPDTVFGATFVVLAPEHPLVPVLACIGERLGNACYSDVENFVEKMKKMSTRERTMEEDKEGVFLGVYATNPANGEKIPVWSANYVLYEYGTGAIMCVPAHDQRDWEFAKKYDLPIKVVVKPEGAWDFEKGAYEGKGTLVNSDGFDGLDSETAKRKITEWLQDRGLGEKKVSYRLRDWNISRQRYWGTPIPVVYCEKCGMVPVPEDQLPVKLPLDVKFTGQGNPLETSEEFVNTTCPKCGGKARRETDTMDTFFDSSWYFLRFCDPKNDREPFSREKVDYWMPVDVYIGGIEHAVLHLLYARFFQKFLKDLGLVRDDEPFEKLITQGMVLKKWVSVKKLLDYLGLSEEDEVEELKKRLEELGARRA”, the “soluble on expression in E. coli” value is on record as “soluble”.
For the sequence “MMLRSHPNTLHITKLSHSAIHQLAPSFAQLPHTNHADGQYRLRRYSVIRFIDGQVVELDKHDFMQTDQINHFQGNVVRRFEPLLSTTLKSDGMRELCALFMEANTLPDGQEIEIHQMRIAAVFDETLVAPEGVHQDGFDHIAIVGIDRYNIVGGEIMLYLSSHEAPFFRKVLENGEVAMLADSQLWHNACPIRTVDHQQEGHMDVFVLTAKDGRHALHS”, the “soluble on expression in E. coli” value is “not soluble”.
